Laboratory results published in US20240042020A1.

Target: human GARP-TGF-β1 complex (human) (UniProt Q14392)

Q: For livmoniplimab (antibody), which minimal concentration that maximally inhibits TGF-β1 release and signaling (reporter assay) is on record?
A: The minimal concentration that maximally inhibits TGF-β1 release and signaling (reporter assay) was 0.8 µg/mL.
